Patent publication US12172986B2, “Splicing modulator antibody-drug conjugates and methods of use” (EISAI R&D MANAGEMENT CO., LTD., priority 2018, dated 2024)

Tested on: MOLP8 cells
Assay: Cell viability, CD138-expressing MOLP8
Format: cell-based
Conditions: anti-CD138 ADC; for GI50: read-out: GI50 (nM) (ADC)
Description: HCC1954 (American Type Culture Collection (ATCC)) breast ductal carcinoma cells were plated at 2000 cells/well in flat bottom 96-well tissue culture plates (Corning) in a total volume of 90 μL tissue culture medium supplemented with 10% fetal bovine serum (ThermoFisher Scientific). Cells were treated with a 3-fold serial dilution of compound from 200 nM to 0.03 nM. Each concentration was tested in triplicate. At the time of treatment, a plate of untreated cells was evaluated using CellTiter-Glo®2.0 Luminescent Cell Viability Assay according to the manufacturer's recommendations (Promega; #G9241). CellTiter-Glo® 2.0 reagent was added to the medium, incubated, and assayed on an EnVision Multilabel Reader (PerkinElmer). Values represent time zero (TO). […] Percentage growth inhibition was calculated as: [(T144-T0)/(C-TO)]×100 for concentrations for which T144>/=TO or [(T144-T0)/T0]×100 for concentrations for which T144<TO. The dose response curve plots were generated using Prism 7 (Graphpad) and fit using nonlinear regression analysis and the log(inhibitor) versus response-variable slope (four parameters).

Molecule	LD50 (nM) (ADC)	Rmin (%) (ADC)	GI50 [nM]
AB205-ADL1-D14 (conjugate) heavy: QVQLQQSGSELMMPGASVKISCKATGYTFSNYWIQRPGHGLEWIGEILPGTGRTIYNEKFKGKATFTADISSNTVQMQLSSLTSEDSAVYYCARRDYYGNFYYAMDYWGQGTSVTVSSAKTTPPSVYPLAPGSAAQTNSMVTLGCLVKGYFPEPVTVTWNSGSLSSGVHTFPAVLQSDLYTLSSSVTVPSSTWPSETVTCNVAHPASSTKVDKKIVPRDCGCKPCICTVPEVSSVFIFPPKPKDVLTITLTPKVTCVVVDISKDDPEVQFSWFVDDVEVHTAQTQPREEQFNSTFRSVSELPIMHQDWLNGKEFKCRVNSAAFPAPIEKTISKTKGRPKAPQVYTIPPPKEQMAKDKVSLTCMITDFFPEDITVEWQWNGQPAENYKNTQPIMDTDGSYFVYSKLNVQKSNWEAGNTFTCSVLHEGLHNHHTEKSLSHSPG light: DIQMTQSTSSLSASLGDRVTISCSASQGINNYLNWYQQKPDGTVELLIYYTSTLQSGVPSRFSGSGSGTDYSLTISNLEPEDIGTYYCQQYSKLPRTFGGGTKLEIKRADAAPTVSIFPPSSEQLTSGGASVVCFLNNFYPKDINVKWKIDGSERQNGVLNSWTDQDSKDSTYSMSSTLTLTKDEYERHNSYTCEATHKTSTSPIVKSFNRNEC	>400	−74.008	< 0.061
AB205-ADL1-D1 (conjugate) heavy: QVQLQQSGSELMMPGASVKISCKATGYTFSNYWIQRPGHGLEWIGEILPGTGRTIYNEKFKGKATFTADISSNTVQMQLSSLTSEDSAVYYCARRDYYGNFYYAMDYWGQGTSVTVSSAKTTPPSVYPLAPGSAAQTNSMVTLGCLVKGYFPEPVTVTWNSGSLSSGVHTFPAVLQSDLYTLSSSVTVPSSTWPSETVTCNVAHPASSTKVDKKIVPRDCGCKPCICTVPEVSSVFIFPPKPKDVLTITLTPKVTCVVVDISKDDPEVQFSWFVDDVEVHTAQTQPREEQFNSTFRSVSELPIMHQDWLNGKEFKCRVNSAAFPAPIEKTISKTKGRPKAPQVYTIPPPKEQMAKDKVSLTCMITDFFPEDITVEWQWNGQPAENYKNTQPIMDTDGSYFVYSKLNVQKSNWEAGNTFTCSVLHEGLHNHHTEKSLSHSPG light: DIQMTQSTSSLSASLGDRVTISCSASQGINNYLNWYQQKPDGTVELLIYYTSTLQSGVPSRFSGSGSGTDYSLTISNLEPEDIGTYYCQQYSKLPRTFGGGTKLEIKRADAAPTVSIFPPSSEQLTSGGASVVCFLNNFYPKDINVKWKIDGSERQNGVLNSWTDQDSKDSTYSMSSTLTLTKDEYERHNSYTCEATHKTSTSPIVKSFNRNEC	0.656	−100.099	> 0.061
AB205-ADL5-D19 (conjugate) heavy: QVQLQQSGSELMMPGASVKISCKATGYTFSNYWIQRPGHGLEWIGEILPGTGRTIYNEKFKGKATFTADISSNTVQMQLSSLTSEDSAVYYCARRDYYGNFYYAMDYWGQGTSVTVSSAKTTPPSVYPLAPGSAAQTNSMVTLGCLVKGYFPEPVTVTWNSGSLSSGVHTFPAVLQSDLYTLSSSVTVPSSTWPSETVTCNVAHPASSTKVDKKIVPRDCGCKPCICTVPEVSSVFIFPPKPKDVLTITLTPKVTCVVVDISKDDPEVQFSWFVDDVEVHTAQTQPREEQFNSTFRSVSELPIMHQDWLNGKEFKCRVNSAAFPAPIEKTISKTKGRPKAPQVYTIPPPKEQMAKDKVSLTCMITDFFPEDITVEWQWNGQPAENYKNTQPIMDTDGSYFVYSKLNVQKSNWEAGNTFTCSVLHEGLHNHHTEKSLSHSPG light: DIQMTQSTSSLSASLGDRVTISCSASQGINNYLNWYQQKPDGTVELLIYYTSTLQSGVPSRFSGSGSGTDYSLTISNLEPEDIGTYYCQQYSKLPRTFGGGTKLEIKRADAAPTVSIFPPSSEQLTSGGASVVCFLNNFYPKDINVKWKIDGSERQNGVLNSWTDQDSKDSTYSMSSTLTLTKDEYERHNSYTCEATHKTSTSPIVKSFNRNEC	>400	−46.23	< 0.061
AB205-ADL10-D1 (conjugate) heavy: QVQLQQSGSELMMPGASVKISCKATGYTFSNYWIQRPGHGLEWIGEILPGTGRTIYNEKFKGKATFTADISSNTVQMQLSSLTSEDSAVYYCARRDYYGNFYYAMDYWGQGTSVTVSSAKTTPPSVYPLAPGSAAQTNSMVTLGCLVKGYFPEPVTVTWNSGSLSSGVHTFPAVLQSDLYTLSSSVTVPSSTWPSETVTCNVAHPASSTKVDKKIVPRDCGCKPCICTVPEVSSVFIFPPKPKDVLTITLTPKVTCVVVDISKDDPEVQFSWFVDDVEVHTAQTQPREEQFNSTFRSVSELPIMHQDWLNGKEFKCRVNSAAFPAPIEKTISKTKGRPKAPQVYTIPPPKEQMAKDKVSLTCMITDFFPEDITVEWQWNGQPAENYKNTQPIMDTDGSYFVYSKLNVQKSNWEAGNTFTCSVLHEGLHNHHTEKSLSHSPG light: DIQMTQSTSSLSASLGDRVTISCSASQGINNYLNWYQQKPDGTVELLIYYTSTLQSGVPSRFSGSGSGTDYSLTISNLEPEDIGTYYCQQYSKLPRTFGGGTKLEIKRADAAPTVSIFPPSSEQLTSGGASVVCFLNNFYPKDINVKWKIDGSERQNGVLNSWTDQDSKDSTYSMSSTLTLTKDEYERHNSYTCEATHKTSTSPIVKSFNRNEC	>400	−25.099	0.08
AB205-ADL5-D25 (conjugate) heavy: QVQLQQSGSELMMPGASVKISCKATGYTFSNYWIQRPGHGLEWIGEILPGTGRTIYNEKFKGKATFTADISSNTVQMQLSSLTSEDSAVYYCARRDYYGNFYYAMDYWGQGTSVTVSSAKTTPPSVYPLAPGSAAQTNSMVTLGCLVKGYFPEPVTVTWNSGSLSSGVHTFPAVLQSDLYTLSSSVTVPSSTWPSETVTCNVAHPASSTKVDKKIVPRDCGCKPCICTVPEVSSVFIFPPKPKDVLTITLTPKVTCVVVDISKDDPEVQFSWFVDDVEVHTAQTQPREEQFNSTFRSVSELPIMHQDWLNGKEFKCRVNSAAFPAPIEKTISKTKGRPKAPQVYTIPPPKEQMAKDKVSLTCMITDFFPEDITVEWQWNGQPAENYKNTQPIMDTDGSYFVYSKLNVQKSNWEAGNTFTCSVLHEGLHNHHTEKSLSHSPG light: DIQMTQSTSSLSASLGDRVTISCSASQGINNYLNWYQQKPDGTVELLIYYTSTLQSGVPSRFSGSGSGTDYSLTISNLEPEDIGTYYCQQYSKLPRTFGGGTKLEIKRADAAPTVSIFPPSSEQLTSGGASVVCFLNNFYPKDINVKWKIDGSERQNGVLNSWTDQDSKDSTYSMSSTLTLTKDEYERHNSYTCEATHKTSTSPIVKSFNRNEC	11.669	−76.736	< 0.061
AB205-ADL5-D15 (conjugate) heavy: QVQLQQSGSELMMPGASVKISCKATGYTFSNYWIQRPGHGLEWIGEILPGTGRTIYNEKFKGKATFTADISSNTVQMQLSSLTSEDSAVYYCARRDYYGNFYYAMDYWGQGTSVTVSSAKTTPPSVYPLAPGSAAQTNSMVTLGCLVKGYFPEPVTVTWNSGSLSSGVHTFPAVLQSDLYTLSSSVTVPSSTWPSETVTCNVAHPASSTKVDKKIVPRDCGCKPCICTVPEVSSVFIFPPKPKDVLTITLTPKVTCVVVDISKDDPEVQFSWFVDDVEVHTAQTQPREEQFNSTFRSVSELPIMHQDWLNGKEFKCRVNSAAFPAPIEKTISKTKGRPKAPQVYTIPPPKEQMAKDKVSLTCMITDFFPEDITVEWQWNGQPAENYKNTQPIMDTDGSYFVYSKLNVQKSNWEAGNTFTCSVLHEGLHNHHTEKSLSHSPG light: DIQMTQSTSSLSASLGDRVTISCSASQGINNYLNWYQQKPDGTVELLIYYTSTLQSGVPSRFSGSGSGTDYSLTISNLEPEDIGTYYCQQYSKLPRTFGGGTKLEIKRADAAPTVSIFPPSSEQLTSGGASVVCFLNNFYPKDINVKWKIDGSERQNGVLNSWTDQDSKDSTYSMSSTLTLTKDEYERHNSYTCEATHKTSTSPIVKSFNRNEC	>400	2.419	0.268
AB205-ADL1-D4 (conjugate) heavy: QVQLQQSGSELMMPGASVKISCKATGYTFSNYWIQRPGHGLEWIGEILPGTGRTIYNEKFKGKATFTADISSNTVQMQLSSLTSEDSAVYYCARRDYYGNFYYAMDYWGQGTSVTVSSAKTTPPSVYPLAPGSAAQTNSMVTLGCLVKGYFPEPVTVTWNSGSLSSGVHTFPAVLQSDLYTLSSSVTVPSSTWPSETVTCNVAHPASSTKVDKKIVPRDCGCKPCICTVPEVSSVFIFPPKPKDVLTITLTPKVTCVVVDISKDDPEVQFSWFVDDVEVHTAQTQPREEQFNSTFRSVSELPIMHQDWLNGKEFKCRVNSAAFPAPIEKTISKTKGRPKAPQVYTIPPPKEQMAKDKVSLTCMITDFFPEDITVEWQWNGQPAENYKNTQPIMDTDGSYFVYSKLNVQKSNWEAGNTFTCSVLHEGLHNHHTEKSLSHSPG light: DIQMTQSTSSLSASLGDRVTISCSASQGINNYLNWYQQKPDGTVELLIYYTSTLQSGVPSRFSGSGSGTDYSLTISNLEPEDIGTYYCQQYSKLPRTFGGGTKLEIKRADAAPTVSIFPPSSEQLTSGGASVVCFLNNFYPKDINVKWKIDGSERQNGVLNSWTDQDSKDSTYSMSSTLTLTKDEYERHNSYTCEATHKTSTSPIVKSFNRNEC	0.535	−99.306	< 0.061
